Experiments:
[1] = biological target: T1, ZZ domain of HERC2 (HERC2ZZ, aa 2702–2755 with additional tryptophan at the C-terminus) (human, UniProt O95714 2702-2755); assay: value cited from earlier reference
T1 chain: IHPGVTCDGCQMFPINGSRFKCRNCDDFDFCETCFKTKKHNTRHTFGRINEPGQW

[2] = biological target: T2, ZZ domain of p300 (p300ZZ) (human); assay: value cited from earlier reference
T2 chain: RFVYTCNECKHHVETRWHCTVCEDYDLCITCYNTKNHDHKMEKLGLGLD

[3] = biological target: T3, REEE peptide (mimetic of the Nt-R cargo degradation signal)
T3 peptide: REEE

## ARTKQTARKSTG
[1]
  Kd: 15 µM

B1: histone H3_(1–12) peptide (aa 1–12 of H3) (peptide)
peptide: ARTKQTARKSTG
modifications: zinc-bound (2 Zn2+ expected for a ZZ finger); limits from the UniProt ZZ-type feature, construct limits not given
[2]
  Kd: 8.8 µM

B2: p62 ZZ (protein)
chain: not shown
[3]
  Kd: 1900 nM
